This experiment concerns the target T1, soluble Nectin-3 (Nec3-Fc) (human, UniProt Q9NQS3 58-404, biotin (the soluble copy in the in vitro binding assay: 'Biotinylated Nec3-Fc')).
T1 construct: Nectin-3 (CD113), human, recombinant soluble form fused to Fc; Probably the extracellular domain; Biotinylated as analyte in the ELISA, not biotinylated when captured in the ELISA or used on cells; also called CD113; source: COS cells, transfected, purified from supernatants on Affi-Gel protein A
The experiment can be described thus: ELISA; Fc proteins (10^-7 M) captured on wells by goat anti-human Fc, 2 h 37 °C; free anti-Fc blocked with human immunoglobulin; biotinylated Nec3-Fc (10^-7 M) incubated 2 h at 37 °C in the absence of Ca2+; streptavidin peroxidase, ABTS. Conditions: both partners purified.

T1 sequence (Q9NQS3 58-404): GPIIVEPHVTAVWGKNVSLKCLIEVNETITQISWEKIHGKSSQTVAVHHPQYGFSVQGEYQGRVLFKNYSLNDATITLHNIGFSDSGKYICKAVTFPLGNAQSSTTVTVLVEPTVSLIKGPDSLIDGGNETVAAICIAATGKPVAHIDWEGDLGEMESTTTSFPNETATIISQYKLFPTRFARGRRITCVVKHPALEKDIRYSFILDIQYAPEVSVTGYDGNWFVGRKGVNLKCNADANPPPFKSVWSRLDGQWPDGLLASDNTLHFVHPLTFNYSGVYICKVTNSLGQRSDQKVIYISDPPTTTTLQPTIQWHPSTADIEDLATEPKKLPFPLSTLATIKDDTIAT

B1: Nec2-Fc (Fc fusion, human, UniProt Q92692 32-360, looked up)
chain: QDVRVQVLPEVRGQLGGTVELPCHLLPPVPGLYISLVTWQRPDAPANHQNVAAFHPKMGPSFPSPKPGSERLSFVSAKQSTGQDTEAELQDATLALHGLTVEDEGNYTCEFATFPKGSVRGMTWLRVIAKPKNQAEAQKVTFSQDPTTVALCISKEGRPPARISWLSSLDWEAKETQVSGTLAGTVTVTSRFTLVPSGRADGVTVTCKVEHESFEEPALIPVTLSVRYPPEVSISGYDDNWYLGRTDATLSCDVRSNPEPTGYDWSTTSGTFPTSAVAQGSQLVIHAVDSLFNTTFVCTVTNAVGMGRAEQVIFVRETPNTAGAGATGG
notes: Nectin-2 (CD112), human, soluble form fused to Fc; Probably the extracellular domain; also called Nectin-2; CD112; source: COS cells, transfected, purified from supernatants on Affi-Gel protein A
For B1, the binding result was “binds”.

B2: PVR-Fc (Fc fusion, human, UniProt P15151 21-343, looked up)
chain: WPPPGTGDVVVQAPTQVPGFLGDSVTLPCYLQVPNMEVTHVSQLTWARHGESGSMAVFHQTQGPSYSESKRLEFVAARLGAELRNASLRMFGLRVEDEGNYTCLFVTFPQGSRSVDIWLRVLAKPQNTAEVQKVQLTGEPVPMARCVSTGGRPPAQITWHSDLGGMPNTSQVPGFLSGTVTVTSLWILVPSSQVDGKNVTCKVEHESFEKPQLLTVNLTVYYPPEVSISGYDNNWYLGQNEATLTCDARSNPEPTGYNWSTTMGPLPPFAVAQGAQLLIRPVDKPINTTLICNVTNALGARQAELTVQVKEGPPSEHSGISRN
notes: PVR (CD155, Necl-5), human, soluble form fused to Fc; Probably the extracellular domain; also called CD155; Necl-5; source: COS cells, transfected, purified from supernatants on Affi-Gel protein A
With B2, the binding result is “binds”.

B3: Nec1-Fc (Fc fusion, human, UniProt Q15223 31-355, looked up)
chain: QVVQVNDSMYGFIGTDVVLHCSFANPLPSVKITQVTWQKSTNGSKQNVAIYNPSMGVSVLAPYRERVEFLRPSFTDGTIRLSRLELEDEGVYICEFATFPTGNRESQLNLTVMAKPTNWIEGTQAVLRAKKGQDDKVLVATCTSANGKPPSVVSWETRLKGEAEYQEIRNPNGTVTVISRYRLVPSREAHQQSLACIVNYHMDRFKESLTLNVQYEPEVTIEGFDGNWYLQRMDVKLTCKADANPPATEYHWTTLNGSLPKGVEAQNRTLFFKGPINYSLAGTYICEATNPIGTRSGQVEVNITEFPYTPSPPEHGRRAGPVPTA
notes: Nectin-1 (CD111), human, soluble form fused to Fc; Probably the extracellular domain; also called Nectin-1; CD111; source: COS cells, transfected, purified from supernatants on Affi-Gel protein A
Take B3: the binding result is reported as “binds”.

The record behind these values is article PMC3792040, “Nectin-3 (CD113) Interacts with Nectin-2 (CD112) to Promote Lymphocyte Transendothelial Migration” (PLoS ONE, 2013).
